The record followed here is patent publication US20260151499A1 (TSINGHUA UNIVERSITY, published 2026).

A value given as a limit tells only on which side of the number the result lay.

Experiment [1] concerns the target T1, CD73 protein (UniProt P21589 27-549).
T1 sequence (looked up): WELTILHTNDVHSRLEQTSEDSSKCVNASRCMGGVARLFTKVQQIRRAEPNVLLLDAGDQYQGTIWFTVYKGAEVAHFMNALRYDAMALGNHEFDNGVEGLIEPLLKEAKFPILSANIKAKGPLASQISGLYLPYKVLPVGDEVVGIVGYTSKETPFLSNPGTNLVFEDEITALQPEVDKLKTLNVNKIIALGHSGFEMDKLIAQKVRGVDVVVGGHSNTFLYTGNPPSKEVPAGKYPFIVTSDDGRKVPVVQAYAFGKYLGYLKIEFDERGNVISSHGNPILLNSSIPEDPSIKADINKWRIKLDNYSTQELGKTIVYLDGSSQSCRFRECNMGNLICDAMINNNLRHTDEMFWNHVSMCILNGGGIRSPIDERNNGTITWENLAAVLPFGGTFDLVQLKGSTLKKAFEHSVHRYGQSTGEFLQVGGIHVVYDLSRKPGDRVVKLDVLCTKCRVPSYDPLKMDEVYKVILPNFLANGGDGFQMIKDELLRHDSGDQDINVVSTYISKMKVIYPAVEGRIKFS
The experiment can be described thus: cell-based or functional assay.

The target of experiment [2] is T1, CD73 protein. In words: Octet BLI; Ab-BN3 on protein A sensors, CD73 in solution.
Experiment [3] addresses NaV1.7 (UniProt Q15858 1-1988). The experiment can be described thus: cell-based or functional assay.
Experiment [4] has as its target NaV1.2 (UniProt Q99250 1-2005). In words: cell-based or functional assay.
In experiment [5] the target is T1, CD73 protein. The experiment can be described thus: cell-based or functional assay. The source holds these as a separate data set.

Chain of NaV1.2 (Q99250 whole entry): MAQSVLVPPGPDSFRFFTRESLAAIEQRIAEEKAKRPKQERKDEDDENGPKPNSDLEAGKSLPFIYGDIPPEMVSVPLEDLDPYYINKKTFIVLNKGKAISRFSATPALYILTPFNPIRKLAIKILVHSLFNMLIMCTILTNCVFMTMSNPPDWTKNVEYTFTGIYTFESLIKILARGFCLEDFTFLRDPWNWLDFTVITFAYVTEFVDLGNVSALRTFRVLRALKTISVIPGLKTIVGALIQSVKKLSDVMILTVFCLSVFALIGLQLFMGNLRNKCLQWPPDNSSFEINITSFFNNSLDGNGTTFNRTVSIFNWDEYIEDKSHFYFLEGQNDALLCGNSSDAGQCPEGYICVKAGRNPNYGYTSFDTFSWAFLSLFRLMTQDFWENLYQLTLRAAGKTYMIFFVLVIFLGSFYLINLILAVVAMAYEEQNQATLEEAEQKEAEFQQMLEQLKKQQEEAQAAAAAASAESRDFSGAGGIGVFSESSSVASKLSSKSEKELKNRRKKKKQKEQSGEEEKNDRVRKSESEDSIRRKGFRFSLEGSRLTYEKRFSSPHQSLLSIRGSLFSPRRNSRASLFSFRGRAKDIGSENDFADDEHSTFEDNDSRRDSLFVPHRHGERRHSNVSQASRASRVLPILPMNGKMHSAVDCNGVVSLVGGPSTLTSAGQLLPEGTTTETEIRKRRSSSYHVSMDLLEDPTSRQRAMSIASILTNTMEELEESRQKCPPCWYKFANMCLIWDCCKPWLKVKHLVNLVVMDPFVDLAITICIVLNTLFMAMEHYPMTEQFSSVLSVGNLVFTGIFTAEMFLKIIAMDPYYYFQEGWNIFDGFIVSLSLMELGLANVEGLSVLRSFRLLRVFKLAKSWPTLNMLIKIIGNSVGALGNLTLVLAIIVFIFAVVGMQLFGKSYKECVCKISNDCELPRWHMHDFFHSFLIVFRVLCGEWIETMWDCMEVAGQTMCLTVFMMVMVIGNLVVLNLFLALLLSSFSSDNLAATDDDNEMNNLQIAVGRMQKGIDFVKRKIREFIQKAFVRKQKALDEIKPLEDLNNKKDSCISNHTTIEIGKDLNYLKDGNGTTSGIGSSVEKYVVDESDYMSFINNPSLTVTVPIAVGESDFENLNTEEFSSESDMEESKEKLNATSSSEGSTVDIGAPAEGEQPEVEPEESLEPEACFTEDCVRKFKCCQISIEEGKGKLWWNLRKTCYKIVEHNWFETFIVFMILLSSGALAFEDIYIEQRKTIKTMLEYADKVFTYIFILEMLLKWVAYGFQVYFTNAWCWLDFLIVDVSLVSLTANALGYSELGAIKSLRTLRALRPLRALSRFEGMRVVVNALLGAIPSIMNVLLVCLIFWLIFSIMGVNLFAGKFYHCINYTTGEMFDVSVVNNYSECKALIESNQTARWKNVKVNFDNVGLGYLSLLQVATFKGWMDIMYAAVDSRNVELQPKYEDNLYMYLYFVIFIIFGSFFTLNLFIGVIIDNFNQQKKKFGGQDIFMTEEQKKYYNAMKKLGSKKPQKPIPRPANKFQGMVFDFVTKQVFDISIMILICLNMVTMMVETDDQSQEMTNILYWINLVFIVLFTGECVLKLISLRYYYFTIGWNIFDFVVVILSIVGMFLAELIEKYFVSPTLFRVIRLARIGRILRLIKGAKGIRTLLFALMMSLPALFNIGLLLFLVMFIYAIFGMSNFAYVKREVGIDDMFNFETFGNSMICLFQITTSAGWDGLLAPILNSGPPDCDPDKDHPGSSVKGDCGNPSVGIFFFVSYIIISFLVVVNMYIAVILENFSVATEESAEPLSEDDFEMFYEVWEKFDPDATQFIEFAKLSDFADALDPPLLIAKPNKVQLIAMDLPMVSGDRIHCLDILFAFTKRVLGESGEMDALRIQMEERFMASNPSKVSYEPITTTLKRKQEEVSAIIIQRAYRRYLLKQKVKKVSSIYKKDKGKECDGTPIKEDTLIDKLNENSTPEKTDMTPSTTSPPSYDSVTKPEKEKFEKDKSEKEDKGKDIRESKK
Chain of NaV1.7 (Q15858 whole entry): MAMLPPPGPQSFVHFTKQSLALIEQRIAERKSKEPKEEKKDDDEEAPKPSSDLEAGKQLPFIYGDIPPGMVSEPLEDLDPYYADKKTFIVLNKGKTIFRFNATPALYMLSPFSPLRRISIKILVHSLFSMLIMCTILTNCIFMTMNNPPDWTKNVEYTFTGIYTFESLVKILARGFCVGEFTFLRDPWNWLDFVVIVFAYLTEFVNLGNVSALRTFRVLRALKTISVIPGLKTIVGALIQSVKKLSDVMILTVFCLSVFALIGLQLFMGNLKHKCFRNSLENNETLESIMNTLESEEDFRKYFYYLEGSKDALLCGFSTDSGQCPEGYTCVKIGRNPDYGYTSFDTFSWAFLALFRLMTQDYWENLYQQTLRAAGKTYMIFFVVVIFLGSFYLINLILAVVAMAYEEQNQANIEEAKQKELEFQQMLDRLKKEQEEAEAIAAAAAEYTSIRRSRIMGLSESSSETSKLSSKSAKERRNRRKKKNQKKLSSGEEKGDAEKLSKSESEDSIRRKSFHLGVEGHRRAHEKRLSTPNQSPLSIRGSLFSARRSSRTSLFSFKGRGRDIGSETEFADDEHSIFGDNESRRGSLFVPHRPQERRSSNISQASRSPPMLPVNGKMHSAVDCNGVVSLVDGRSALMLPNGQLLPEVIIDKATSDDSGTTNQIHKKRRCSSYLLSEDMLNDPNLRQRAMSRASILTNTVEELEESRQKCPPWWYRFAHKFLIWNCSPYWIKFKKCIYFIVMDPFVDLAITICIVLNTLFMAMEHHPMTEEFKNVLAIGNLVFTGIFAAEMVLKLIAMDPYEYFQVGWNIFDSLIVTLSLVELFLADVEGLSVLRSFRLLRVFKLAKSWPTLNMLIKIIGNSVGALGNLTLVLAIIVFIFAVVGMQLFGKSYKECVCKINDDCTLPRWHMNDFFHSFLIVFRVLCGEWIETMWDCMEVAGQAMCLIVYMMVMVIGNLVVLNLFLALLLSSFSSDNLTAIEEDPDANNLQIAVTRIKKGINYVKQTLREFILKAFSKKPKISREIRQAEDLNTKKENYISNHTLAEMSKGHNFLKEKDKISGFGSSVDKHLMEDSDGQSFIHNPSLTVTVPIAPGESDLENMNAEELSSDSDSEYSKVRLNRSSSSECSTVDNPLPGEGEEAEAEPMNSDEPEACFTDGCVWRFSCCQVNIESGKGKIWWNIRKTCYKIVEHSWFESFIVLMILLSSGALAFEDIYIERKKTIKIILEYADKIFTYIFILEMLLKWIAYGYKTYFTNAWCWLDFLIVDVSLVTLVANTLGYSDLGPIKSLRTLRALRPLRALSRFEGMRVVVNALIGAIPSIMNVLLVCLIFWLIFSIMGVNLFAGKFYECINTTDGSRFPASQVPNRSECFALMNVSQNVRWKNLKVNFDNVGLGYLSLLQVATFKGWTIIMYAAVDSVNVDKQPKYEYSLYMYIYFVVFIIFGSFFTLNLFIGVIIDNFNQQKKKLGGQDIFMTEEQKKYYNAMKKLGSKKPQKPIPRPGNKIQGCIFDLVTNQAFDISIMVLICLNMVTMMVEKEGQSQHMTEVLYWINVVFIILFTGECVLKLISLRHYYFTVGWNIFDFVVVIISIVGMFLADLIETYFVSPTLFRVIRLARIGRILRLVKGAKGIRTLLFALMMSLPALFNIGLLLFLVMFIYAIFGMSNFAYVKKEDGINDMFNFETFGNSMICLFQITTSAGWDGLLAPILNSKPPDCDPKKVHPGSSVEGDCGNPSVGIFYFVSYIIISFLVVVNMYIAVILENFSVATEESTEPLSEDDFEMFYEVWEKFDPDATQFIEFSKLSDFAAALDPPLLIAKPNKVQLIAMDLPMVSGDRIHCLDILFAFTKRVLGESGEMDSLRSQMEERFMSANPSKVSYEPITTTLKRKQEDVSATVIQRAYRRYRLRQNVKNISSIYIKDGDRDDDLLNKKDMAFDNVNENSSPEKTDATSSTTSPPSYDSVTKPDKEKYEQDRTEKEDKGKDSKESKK

B1: ABN3-2G-BN3 (antibody, V domains shown)
VH: EVQLVESGGGLVQPGGSLRLSCAASGITFGSYTMSWVRQAPGKGLEWIGTVHYTGKTFYSPSLKSRVTISADTSKNTAYLQMNSLRAEDTAVYYCARGRDFGEPPYVRAFDIWGQGTLVTVSS
VL: DIQMTQSPSSLSASVGDRVTITCQASHDISKYLNWYQQKPGKAPKLLIYDASNLETGVPSRFSGSRSGTDFTLTISSLQPEDFATYYCQQXYTTPPTFGQGTKLEI
modifications: not fully specified; position marked * in QQ*YTTPPT (light chain residue 91): unnatural amino acid (UAA) with azide, conjugated to BN3 (PSB12379-PEG3-DBCO)
notes: also called ABN3-2G Ab-BN3
As usually defined, the Kd is the free concentration of one partner at which half of the binding sites on the other are occupied at equilibrium, for simple one-to-one binding. Read a high Kd as weaker binding. In general, koff refers to a measure of how fast the partners let go of each other. Broadly, the kon is the rate constant with which the complex forms. A lower kon goes with slower complex formation. In the case of B1, the “IC90 of inhibition of CD73 (malachite green phosphate assay)” value (shortened to “IC90 of inhibition of CD73”) in experiment [1] turned out to be 25.9 nM. In experiment [2], this molecule registered a Kd of 0.887 nM, an off-rate (koff) of 0.000271 s⁻¹ and a kon of 305000 M⁻¹ s⁻¹.

B2: 10A7-BN3 (antibody, V domains shown)
VH: EVQLVESGGGLVQPGGSLRLSCAASGFAFSSYSMSWVRQAPGKGLEWIGSIYYSGSTYYNPSLKSRVTISADTSKNTAYLQMNSLRAEDTAVYYCARNSGFETLDYWGQGTLVTVSS
VL: DIQMTQSPSSLSASVGDRVTITCRASQGISRWLAWYQQKPGKAPNLLIYGASTLQSGVPPRFSGSRSGTDFTLTISSLQPEDFATYYCQQXYTTPPTFGQGTKLEI
modifications: position marked * in QQ*YTTPPT (light chain residue 91): unnatural amino acid (UAA) with azide, conjugated to BN3 (PSB12379-PEG3-DBCO)
notes: also called 10A7 Ab-BN3
For B2, the “IC90 of inhibition of CD73” value in experiment [1] came out at 2.92 nM. In experiment [2], this molecule came in with a Kd of 0.888 nM, an off-rate (koff) of 0.000191 s⁻¹ and an association rate constant (kon) of 215000 M⁻¹ s⁻¹.

B3: 14H4-PEG3-ASF (antibody, V domains shown)
VH: EVQLVESGGGLVQPGGSLRLSCAASGFSFSKFWMHWVRQAPGKGLEWVAFMAHDESNKNYADSVKGRFTISADTSKNTAYLQMNSLRAEDTAVYYCARDKVCNTFDIWGQGTLVTVSS
VL: DIQMTQSPSSLSASVGDRVTITCRASQSISSDLNWYQQKPGKAPKLLIYRATFLESGVPSRFSGSRSGTDFTLTISSLQPEDFATYYCQQXYTTPPTFGQGTKLEI
modifications: position marked * in QQ*YTTPPT (light chain residue 91): unnatural amino acid (UAA) with azide, conjugated to ASF-PEG3-DBCO
B3: the “IC50 on HEK293-NaV1.7 cells, by curve fitting” value in experiment [3] was > 500 nM. Moreover, in experiment [4], the “IC50 on HEK293-NaV1.2 cells” value is 2.73 nM.

B4: 10A7-Fab-BN3 (Fab, V domains shown)
VH: EVQLVESGGGLVQPGGSLRLSCAASGFAFSSYSMSWVRQAPGKGLEWIGSIYYSGSTYYNPSLKSRVTISADTSKNTAYLQMNSLRAEDTAVYYCARNSGFETLDYWGQGTLVTVSS
VL: DIQMTQSPSSLSASVGDRVTITCRASQGISRWLAWYQQKPGKAPNLLIYGASTLQSGVPPRFSGSRSGTDFTLTISSLQPEDFATYYCQQXYTTPPTFGQGTKLEI
modifications: position marked * in QQ*YTTPPT (light chain residue 91): unnatural amino acid (UAA) with azide, conjugated to BN3 (PSB12379-PEG3-DBCO)
For B4, in experiment [5], the “IC50 of inhibition of CD73, against that of 10A7-BN3” value is ~0.2 fold of the IC50 of 10A7-BN3.

B5: 14E6-PEG3-ASF (antibody, V domains shown)
VH: EVQLVESGGGLVQPGGSLRLSCAASGFTFSNFAMHWVRQAPGKGLEYVSAISGGNGGGTYYADSAKGRFTISADTSKNTAYLQMNSLRAEDTAVYYCAREGNYCLDYWGQGTLVTVSS
VL: DIQMTQSPSSLSASVGDRVTITCRASQPISDWLAWYQQKPGKAPKSLIYDAYNLQSGVPPRFSGSRSGTDFTLTISSLQPEDFATYYCQQXYTTPPTFGQGTKLEI
modifications: position marked * in QQ*YTTPPT (light chain residue 91): unnatural amino acid (UAA) with azide, conjugated to ASF-PEG3-DBCO
Consider B5, for which the “IC50 on HEK293-NaV1.2 cells” value in experiment [4] came to 5.02 nM.

B6: 10D8-BN3 (antibody, V domains shown)
VH: EVQLVESGGGLVQPGGSLRLSCAASGFTFSTYAIHWVRQAPGKGLEWVSSISGSGGGGGTYYADSVKGRFTISADTSKNTAYLQMNSLRAEDTAVYYCARDRGFLQFDYWGQGTLVTVSS
VL: DIQMTQSPSSLSASVGDRVTITCRASQSISSWLAWYQQKPGKAPKLLIYDVSNVQTGVPSRFSGSRSGTDFTLTISSLQPEDFATYYCQQXYTTPPTFGQGTKLEI
modifications: position marked * in QQ*YTTPPT (light chain residue 91): unnatural amino acid (UAA) with azide, conjugated to BN3 (PSB12379-PEG3-DBCO)
notes: also called 10D8 Ab-BN3
With B6, the “IC90 of inhibition of CD73” value in experiment [1] is > 100 nM. In experiment [2], this molecule came in with a Kd of 1.35 nM, a koff of 0.000275 s⁻¹ and an on-rate (kon) of 204000 M⁻¹ s⁻¹.

B7: ABN3-2B-BN3 (antibody, V domains shown)
VH: EVQLVESGGGLVQPGGSLRLSCAASGFTFSSYWMHWVRQAPGKGLEWVSAVSGSGDSTYYADSVKGRFTISADTSKNTAYLQMNSLRAEDTAVYYCAREGDWGLDYWGQGTLVTVSS
VL: DIQMTQSPSSLSASVGDRVTITCRASQGINNYLAWYQQKPGKAPKLLIYDASNLETGVPSRFSGSRSGTDFTLTISSLQPEDFATYYCQQXYTTPPTFGQGTKLEI
modifications: not fully specified; position marked * in QQ*YTTPPT (light chain residue 91): unnatural amino acid (UAA) with azide, conjugated to BN3 (PSB12379-PEG3-DBCO)
notes: also called ABN3-2B Ab-BN3; ABN-2B
As to B7, in experiment [2], the Kd turned out to be 3.16 nM, the koff was 0.000582 s⁻¹ and the kon was found to be 185000 M⁻¹ s⁻¹.
